# Assay results published in the nanobody polyreactivity screen of Harvey et al. (2022).
# Assay: yeast display, Sf9 membrane polyspecificity reagent, FACS + sequencing; frameworks hold sequencing errors
# Summary of the method: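 Nanobodies from a synthetic yeast display library (Saccharomyces cerevisiae BJ5465), induced 36–48 hours with galactose, were stained 1 hour at 4 °C with 10% biotinylated, detergent-solubilized Sf9 membrane reagent, enriched on streptavidin microbeads, then FACS-sorted. Anti-HA (expression) and streptavidin (reagent binding) fluorescence set low and high (top ~1%) gates. Polyreactivity labels come from the gate of origin. Genes were colony-PCR amplified, MiSeq 2 × 250 sequenced and filtered by CDR length.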
row,Sequence,polyreactivity (PSR sort gate)
1,QVQLVESGGGLVQAGGSLRLSCAASGSILTVYAMGWYRQAPGKERELVARIRSGDRTYYADSVKGRFTISRDNAKNSVYLQMNSLKPEDTAVYYFAAGSQLRYYHTNWDSFNYWGQGTQVTVSS,low polyreactivity
2,QVQLVESGGGLVQAGGSLRLSCAASGFIFRSYAMGWYRPAPGKERELVAAITKSGGRTYYADSVKGRFTISRDNAKNTVYLQMNSLKPEDTAVYYCAADQTSYSTSRRYDYWGQGTQVTVSS,high polyreactivity
3,QVQLVESGGGLVQAGGSLRLSCAASGSTFYSYAIGWYRQAPGKERELVADISYSDGSTYYADSVKGRFTISRDYAKNTVYLQMNSLKPEDTAVYYCDAYALSYFKIMDYWGQGTQVTVSS,low polyreactivity
4,QVQLVESGGGLVQAGGSLRLSCAASGSIFLYNAMGWYRQAPGKERELVAAISRSSTSTYYSDSVKGRFTISRDNAKNTVYLQMNSLKPEDTAVYYCAARGRVTYWGQGTQVTVSS,high polyreactivity
5,QDQLVESGGGLVQAGGSLRLICAASGSIFTFYDMGWYRQAAGNERELVAAISSGGSTTYADSVKGRFTISRDNAKNTVYLQMNSLKPEDTAFYYCAADSQPYLYPVEYDYWRQGTQVTVSS,low polyreactivity
6,PVQLVDSGGGLVQAGGSLRLSCAASGKIFFGYTMGWYRTAPGKERELVAAITYRGGRTYYADSEKGRFTISRDNAKHTVYLQMNSLKPEDTAVYYFAVGGSGYGRYGGGYARDYWGQGTQVTVSS,high polyreactivity
7,QVQLQESGGGLVQAGGSLRLSCAASGTIFRFRYMGWHRQAPGKERELVAGINGGTTTYYADSVIGRFTISRDNAKNTVYLHMNCLKPDDTAVYNCAAGASRLTYYDYWGQGTQVTVSS,low polyreactivity
8,QVQLVESGGGLVQAGGSLRLSCAASGSIFTTNAMGWYRQAPGKERELVAAISSRGTSTYYADSVKGRFTISRDNAKNTVYLQMNSLKPEDTAVYYCAADYVYASRHFEYWGQGTQVTVSS,high polyreactivity
9,QVQLVESGGGLVQAGGSLRLSCAASGLTFRDNAMGRYRQAPGKERELVATINSGGSTDYADSVKGRFTISRDNAKNTVYLQMNSLKPEDTAVYYCAVSREYYDRGWYSIFYWYVYWGQGTQVTVSS,low polyreactivity
10,QVQLVESGGGLVQAGGSLRLSCAASGRIIARNAMGWYRQAPGKEREFVAAITARGARTYYADSVKGRFTISRDNAKNTVYLQMNSLKPEDTAVYYCAVVQGNVYYTGDDYWGQGTQVTVSS,high polyreactivity
11,QVHLVESAGGLVHAGGSHRLSCAASGFIFYRNAMGCYRQEPGKERELVAAISYRGARTYYADSVKGRFTISRDYEKNTVYLQMNSLKPEDTAVYYCAAQGVSSPGVDSWGQGTQVTVSS,high polyreactivity
12,QVQHVESGGGLVQAGGSLRLSCAASGSIFAHYTMGWYRQAPGKERELVAVISRSGARTYYADSVKGRFTISRDNAKNTVYLQMNSLKPEDTAVYYCAADRNLEEDYWGLGTQVTVSS,low polyreactivity
13,QVQLGESGGGLVQAGGSLRLSCAASGFIFFYYAMGRYRQAPGKERELVAVNTRGGSTYYADSVKGRFTISRDNAKNTVYLQMNSLKPVDTAVYYCAAGIFYYRYYQVDYWGQGTQVTVSS,high polyreactivity
14,QVQLVDTGAGLVQAGGSLRISCAPSGNIFVDNVMGWYRQAPGKERELVAAIDYSGGSTYYADSVKGRFTISRDNAKNNVYLQMNSLKPEDTAVYYCNARTYYGFGMDFWGQGTQVTVSS,low polyreactivity
15,QVQLVESGGGLVQAGGSLRLSCAASGIIFTGYAMGWYRQAPGKERELVAAISGSGGRTYYSDSVKGRFTISRDNAKNTVYLQMNSLKPEDTAVYYCAAYRVSDYDYWGQGTQVTVSS,high polyreactivity
16,QVQLVESGGGLVQAGGSLRLSCAASGLTYADYAMGWYRQAPGKDRQLVAAISRRGGSTYYADSVKGRFTISRDKAKNTVYLQMNSLKPEDTAVYYCAAYAYDVAFKRYKFDYWGQGTLVTVSS,high polyreactivity
17,QVQLVESGGGLVQAGGSLRLSCAASGSILTWYPMGWYRQAPRKERELVAAITRGGSTYADSVKGRFTISRDNAKNTVYLQMNILKPEDTAVYYCKAVYGVYVFNYWGQGTQVSVSS,low polyreactivity
18,QVQLVESGGGLVQAGGSLRLICAASGFTFPPYAMGGYRQAPGKERELVAAITSSGGRTYYAYSVKGRFTISRDNAKNTVYLQMNSLKPEDTAFYYCAAYGRFARMNYWGQGTQVTVSS,high polyreactivity
19,QVQLEESGGCLVQAGGSLRLSCAASGSTFSNYAMGWYRLAPGKESELVAAISYSGARTDYADSVKGRFTISRDNAKHTVYFQMHSLKPEDTAVYYCAAQVLSRHANPYAYYYWGQGTQVTVSS,high polyreactivity
20,QVQLVESGGGLVQAGGSLRLSFAASGIILGSYAMGWYRQAPGKERELVAGITSGGGTYYADSVKGRFTISRDNAKNTVYLQMNSLKPEDTAVYYCAKLYLHYYRYGYWGQGTQVTVSS,low polyreactivity
21,QVQLVESGGGLVQAGGSLRLSCAASGSTFIGNAMGWYRQAPGKERELVAAITSSGGSTYYADSVKGRFTISRDNAKNTVYLQMNSLKPEDTAVYYCAAKSRRTRRSYYWGQGTQVTVSS,high polyreactivity
22,QVQLVESGGGLVQAGGSLRLSCAASGRTFEGYTMGWYRQAPGKERELVAAITWRGTSTYYADSVKGRFTISRDNAKNTVYLQMNSLKPEDTAVYYCNKVGWYHNYYYWGQGTQVTVSS,high polyreactivity
23,QVQLVESGRGLVQAGGTLRLSCAASGFIFATNTMGWYRQAPGKERELVAASSTYYADSVKGRFTISRDNAKNTVYLQMNSLKPEDTAVYYCNADRDSYIGFVDWAGEYWGQGTQVTVSS,low polyreactivity
24,QVQLVESGGGLVQAGGSLRLSCAASGFIFGYNAMGWYRQAPGKERELVAAMDWSGTSTYYADSVKGRFTISRDNAKNTVYLQMNSLKPEDTAVYYCAKVSRRGIVGYWGQGTQVTVSS,high polyreactivity
25,QVQLVESGGGLVQAGGSLRLSCAASGRIFTANAMGWYRQAPGKERELVAAISWRGGSTYYADSVKGRFTISRDNAKNSVYLQLNSLKPEDTAVYYCAAQRYAPYRYEYWGQGTHVTVSS,high polyreactivity
26,QVQLVESGGLLVKAGGSLRLSCAASGSIFYLYVMGWYRQAPGIERELVAANTWSGGSTYYADSVKGRFTISRDNAKNTVYLQMNILIPEDTAVYYCAARGYVPYVKYDYWGQGTQVTVSS,high polyreactivity
27,QVQLVESGGGLVQAGGSLRLSCAASGGIFYINAMGWYRQAPGKERELVAAISRDGTITYYADSVKGRFTISRDNAKNTVYLQMNSLKPEDTAVYYCAADASIQSWYSIYDYWGQGTQVTVSS,high polyreactivity
28,QVQLVESGGGLVQAGGSLRLSCAASGRIFLSNAMGWYRQAPGKERELVAAISWTGGSTYYADSVKGRFTISRDNAKNTVYLQMNSLKPEDTAVYYCAASTVGQTYSDYVDTYDYWGQGTQVTVSS,low polyreactivity
29,QVQLVESGGGLVQAGGSLRLSFAPSGNSFGRYAMGWYRQAPGKERELVAAITRSGGTTYYADSVKGRFTLSRDNAKNTGYLQMNSLKPEDTAVYYCATDGDSTKLDYWGQGTQVTVSS,low polyreactivity
30,QVQLVESCGGLVQAGGSLRLSCAATGRIFAGYVMGWYRPAHGKERELVAAISWRGGRTYYADSVKGRFTISRDNAKNTVYLQMISLKPEDTAVYYCNAPYAVGNPADDYWGQGTQVTVSS,high polyreactivity
